Data published in publication PMC9592559 (Structure(London, England:1993), 2022).

Target: the molecule itself
Assay: SEC; analytical gel filtration of TOP2B (45–444) in the presence and absence of AMPPNP

B1: human TOP2B ATPase domain (45–444) (domain or fragment, UniProt Q02880-2 45-444, looked up)
chain: SVERVYQKKTQLEHILLRPDTYIGSVEPLTQFMWVYDEDVGMNCREVTFVPGLYKIFDEILVNAADNKQRDKNMTCIKVSIDPESNIISIWNNGKGIPVVEHKVEKVYVPALIFGQLLTSSNYDDDEKKVTGGRNGYGAKLCNIFSTKFTVETACKEYKHSFKQTWMNNMMKTSEAKIKHFDGEDYTCITFQPDLSKFKMEKLDKDIVALMTRRAYDLAGSCRGVKVMFNGKKLPVNGFRSYVDLYVKDKLDETGVALKVIHELANERWDVCLTLSEKGFQQISFVNSIATTKGGRHVDYVVDQVVGKLIEVVKKKNKAGVSVKPFQVKNHIWVFINCLIENPTFDSQTKENMTLQPKSFGSKCQLSEKFFKAASNCGIVESILNWVKFKAQTQLNKKCS
notes: Cloned by LIC into the pET His6 MBP Asn10 TEV LIC vector (1C), Addgene plasmid 29654; The models hold residues 46–429 (7QFO), 47–422 (7QFN) and 45–422 (7ZBG); not shown: His6, N-terminal, cleaved; MBP, N-terminal, cleaved
Question: For B1, which “stoichiometry N” value is on record?
Answer: Its value is 2.
